Experimental data: the DeepSol protein solubility set

Experiment: soluble on expression in E. coli; label from the status in PepcDB or PDB records

Sequence	soluble on expression in E. coli
MAHQTGIHATEELKEFFAKARAGSVRLIKVVIEDEQLVLGASQEPVGRWDQDYDRAVLPLLDAQQPCYLLYRLDSQNAQGFEWLFLAWSPDNSPVRLKMLYAATRATVKKEFGGGHIKDELFGTVKDDLSFAGYQKHLSSCAAPAPLTSAERELQQIRINEVKTEISVESKHQTLQGLAFPLQPEAQRALQQLKQKMVNYIQMKLDLERETIELVHTEPTDVAQLPSRVPRDAARYHFFLYKHTHEGDPLESVVFIYSMPGYKCSIKERMLYSSCKSRLLDSVEQDFHLEIAKKIEIGDGAELTAEFLYDEVHPKQHAFKQAFAKPKGPGGKRGHKRLIRGPGENGDDS	soluble
MAHRNTYEAVLHKIQVGSPEDGNGAIRILQLSDLHLEKLSISPDDLYEKLRGEPIDFIALTGDFLDREASIPKLGPYLTALKKLQPAYGMYAVFGNHDYVLQGEPFERLKATLEEHGCIVLQNEMKTITVHGQTVNIIGIDDFYTRRSNMKKAYAGVKDGINIVLTHDPDIVPHMGAYHFDYLLSGHFHGGQIHWPKPYHLAKMSKTLTKRNMIKGYHEWEGKPFYINEGLGQTGVNIRVGSKPEVTLHLLSLPSVAQSETVKAVLEHHHHHH	soluble
MAHRRKFGGGRGEAVAKAVGIKGSALPTVIDATAGLGRDAFVLAAIGCQVRLVERHPVVFLLLQDGLNRAYQDEEIGEMLQQNLHLLNVQHINELDPNSDYADVVYLDPMYPHKQKSALVKKEMRVFQHLVGADLDADELLLPALQLAKKRVVVKRPDYAEFLCGKQPHFSHETKNHRFDIYMGASQCLEHHHHHH	not soluble
MAHSTIPTLLCFCDEPLKRTNEGAEHVNQARRYAKWHVYRERGYETVPPTENPDSLLAACIAVARLSETAFEDAFGDIEAQIRSHYDDSTVELPFADADGSDILVYKKDIAVRPDPMTFDPPVLEQFLGQFSGDSDSPVVPAKADLDREVFDDLDFELKSVSGMHYLHNDGYDNERTVQSSQRLGTDPDATVEMIPVDPAEFGNFQHYVTSNLIYQARDVLLRMGVKPPIAFRAQGQGKYRATLEQQACPQYENYWDATADIQSWEPK	not soluble
MAIAKTDVLKFTTEVQPIGKQQYMELSKDIFVFSYLCGGINFTDIANLTNENIQNGRLHYIRQKTKKPIKIGIPQEAMQIIEKYSKESKGYLFPILDSKIHKTALQKQNRIHKILGKVNKNLKLLAAQLGVEANLTTYVARHSFASVLKKSGVNIALISEALGHSDLATTQIYLDSFDNEQVDEAMRNLLEHHHHHH	not soluble
MAIESEVLVIGGGLGGLTSALAAAREGADVRLVSYKQSTLRQASGLVDVLGYTPDGDGPLTDPYEAIPSLPEAHPYRKVGVQTVRDALSLFDDAVPTYEGEHTDTNALLPTHGGSIKPTARYPAGASAGLASDTRDTLLVGIEEMVDFDAPHVAAHLDATGVPFDVRGETIRFPGDLRADAKVTRYAKLLDTNSEVAVRGRMVPAREALAQRVNPLLEDEERVGFPAILGDDNPGAIRDALGDHLGVDVFEVPMGPPSLPGLRLEDALFSALDEAGASIETGNPVVDFDGEDRIEKVFIEKNGAKIPNSADQYVLATGGFVGKGVESDREGVYEPVFDCHIPHAADRYDWFEGELFGDHEFARYGVATDDDLRPLDASEHSEFENLRAAGSVLGGYDFAAEKSGSGVSIATGYAAGQRAAQEARLEHHHHHH	soluble
MAIETILVINKSGGLIYQRNFTNDEQKLNSNEYLILASTLHGVFAIASQLTPKALQLTQQTNIENTIPYIPYVGMSSNRSDTRNGGGNNNKHTNNEKLGSFKGDDFFKEPFTNWNKSGLRQLCTDQFTMFIYQTLTGLKFVAISSSVMPQRQPTIATTDKPDRPKSTSNLAIQIADNFLRKVYCLYSDYVMKDPSYSMEMPIRSNLFDEKVKKMVENLQ	soluble
MAIKGPRKHLKRLAAPANWQLPRKVKTFTVRPSPGPHSMDKSLPLLLVVRDVLKYADNAREAKKIIQTGKILIDGLKRKEYKHPAGLMDVLSIPEMDETYLVLFDESGRISLKKTDKTDVKLCKIVNKTVVKGGNIQLNLHDGRNQIVKVSDAAKAEEDVYKTGDSVLISIPEQSIAGHVAFGEGKLAYITGGKHVGEFAKIVEVENRALYSDIVTLENKDGEKFKTVKPYVFIVGQDEPVISMLEHHHHHH	soluble
MAILIPASFGRLTITSRAQVRVRVSASANQRTIRRDSVDWVKETSSFFEEDKRPIMLFDGVCNLCNGGVKFVRDHDRNRSIRFEALQSEAGKKLLLRSGRAPDDISSVVLVENDRSYIKSEAVLKIMKYIDLPFPQLAFFLQFAPLFVRDFLYENVANNRYAMFGRSDSCEL	soluble
MAIRSSVLALCVATLLTGCQNLNTNTLMQSGAQAFQAATLSDAQVKALSDQSCEQMDKEAKIAPADSKYTQRLNKIADALGHDINGTPANYKVYLEKDVNAWAMANGCIRVYSGLMDMMNDNEVEGVLGHEMGHVALGHTRKAMQVAYAATAARTAIASAGGVAASLSQSQLADLGEKLVNSQFSQSQESQADDYSFDLLKKRGINREGLASSFEKLAKLDASHESSMFDSHPSSEGRAKHIRERITAEKLEHHHHHH	soluble
MAISKRHIGPYIIRETLGEGSFGKVKLATHYKTQQKVALKFISRQLLKKSDMHMRVEREISYLKLLRHPHIIKLYDVITTPTDIVMVIEYAGGELFDYIVEKKRMTEDEGRRFFQQIICAIEYCHRHKIVHRDLKPENLLLDDNLNVKIADFGLSNIMTDGNFLKTSCGSPNYAAPEVINGKLYAGPEVDVWSCGIVLYVMLVGRLPFDDEFIPNLFKKVNSCVYVMPDFLSPGAQSLIRRMIVADPMQRITIQEIRRDPWFNVNLPDYLRPMEEVQGSYADSRIVSKLGEAMGFSEDYIVEALRSDENNEVKEAYNLLHENQVIQEKLEHHHHHH	soluble
MAISVVDLFSIGIGPSSSHTVGPMRAALTYISEFPSSHVDITLHGSLAATGKGHCTDRAVLLGLVGWEPTIVPIDAAPSPGAPIPAKGSVNGPKGTVSYSLTFDPHPLPEHPNAVTFKGSTTRTYLSVGGGFIMTLEDFRK	not soluble
MAKASSSFVCQNCGAAFNRWQGKCEACGEWNTLVEEAGDNAVPVSIRAKRRGRTFKLESLAGKSNDAPRLPSGMAELDRVTGGGFVRGSVLLVGGDPGIGKSTLLTQATSLMAKAGHRTVYISGEEAIAQVRLRAERLGLASAPVELAAETSVEDIVATLSEGATPKLIVIDSIQTMWTDTVESAPGTVTQVRASAQALIRFAKKTGAAIILVGHVTKDGQIAGPRVVEHMVDAVLSFEGEGSQQFRILRSVKNRFGPTDEIGVFEMTGLGLREVSNPSELFLSERDLGSPGTAVFAGIEGTRPVLVELQALVAPSTLGTPRRAVVGWDSARLSMVLAVLEAHCGVKLSGYDVYFNVAGGLRINEPAADLAAAAALVSSLANAPLPTDAVYFGEISLSGAVRPVAQTPARLKEAAKLGFARAVLPEQTRGEAPADAGLALQSVGGLSSLVADIAARGTRRGDDDGAPRTKAASNATPARFRRQEALEHHHHHH	soluble
MAKETVCVTGANGFIGSWIIRTLIEKGYTKIHASIYPGSDPTHLLQLPGSDSKIKIFEADLLDSDAISRAIDGCAGVFHVASPCTLDPPVDPEKELVEPAVKGTINVLEAAKRFNVRRVVITSSISALVPNPNWPEKVPVDESSWSDLDFCKSRQKWYPISKTLAEKAAWEFSEKHGTNIVTIHPSTCLGPLLQPNLNASCAVLLQLLQGSTETQEHHWLGVVHVKDVAKGHVMLFETPDASGRFLCTNGIYQFSEFAALVSKLFPEFAVHKFDKETQPGLTSCNDAAKRLIELGLVFTAVEDAVKETVQSLRDKGFL	soluble
MAKEWGYASHNGPDHWHELFPNAKGENQSPIELHTKDIRHDPSLQPWSVSYDGGSAKTILNNGKTCRVVFDDTYDRSMLRGGPLPGPYRLRQFHLHWGSSDDHGSEHTVDGVKYAAELHLVHWNPKYNTFKEALKQRDGIAVIGIFLKIGHENGEFQIFLDALDKIKTKGKEAPFTKFDPSSLFPASRDYWTYQGSFTTPPCEECIVWLLLKEPMTVSSDQMAKLRSLLSSAENEPPVPLVSNWRPPQPINNRVVRASFKHHHHHH	soluble
MAKGDVITLNFETFVDSDTQVKVTRLTPTDVICHRNYFYQKCFTQDGKKLLFAGDFDGNRNYYLLNLETQQAVQLTEGKGDNTFGGFISTDERAFFYVKNELNLMKVDLETLEEQVIYTVDEEWKGYGTWVANSDCTKLVGIEILKRDWQPLTSWEKFAEFYHTNPTCRLIKVDIETGELEVIHQDTAWLGHPIYRPFDDSTVGFCHEGPHDLVDARMWLVNEDGSNVRKIKEHAEGESCTHEFWIPDGSAMAYVSYFKGQTDRVIYKANPETLENEEVMVMPPCSHLMSNFDGSLMVGDGCDAPVDVADADSYNIENDPFLYVLNTKAKSAQKLCKHSTSWDVLDGDRQITHPHPSFTPNDDGVLFTSDFEGVPAIYIADVPESYKHLEHHHHHH	soluble
MAKISEIMLLQQPEQPALAIEVQTYMKGMSQAIGENFVRIDSLFKKQGEVTTDIPFVEYPDFESLTEDRIKMIIGLKSSKPLQGDEKIQSVILPARRIVVCLHRGNYNELAQLYNEMTEWIKTNGYKASGTSIEYYYSNPDVPEEEHVTRVEMPLL	not soluble
MAKKDEVGGRVLQDVFLDWAKKYGPVVRVNVFHKTSVIVTSPESVKKFLMSTKYNKDSKMYRALQTVFGERLFGQGLVSECNYERWHKQRRVIDLAFSRSSLVSLMETFNEKAEQLVEILEAKADGQTPVSMQDMLTYTAMDILAKAAFGMETSMLLGAQKPLSQAVKLMLEGITASRNTLAKFLPGKRKQLREVRESIRFLRQVGRDWVQRRREALKRGEEVPADILTQILKAEEGAQDDEGLLDNFVTFFIAGHETSANHLAFTVMELSRQPEIVARLQAEVDEVIGSKRYLDFEDLGRLQYLSQVLKESLRLYPPAWGTFRLLEEETLIDGVRVPGNTPLLFSTYVMGRMDTYFEDPLTFNPDRFGPGAPKPRFTYFPFSLGHRSCIGQQFAQMEVKVVMAKLLQRLEFRLVPGQRFGLQEQATLKPLDPVLCTLRPRGWQPAPPPPPCHHHH	soluble
MAKKKIVAVIQARMGSSRLPGKVLMTVAGKPLLEHIIDRLRRSRTLDDIVIATSDKPCDDPLVDFAQTRGVTLVRGSEDNVLLRFNKAAEEVDADVIIRVTGDAPLVDPEVMDRLVRTLLQEGAEYCTIEAGINSIHEGFCTFTRGALKRLMTEAPDDPVAIEHVTAYFIAHPDKFHIARIPVGNEHRFKGARLSVDTPADVQFFDELYRLLGVPAGDADIADVVRLLRNNPHLLQINQHVYQKKATDRSHKVLIRCDGDSRTGLGHVVRCLALAGELREKQGCGIIFAMASGEPGMKMVRQADFPLERQEDADEGEWMDGLISRHHPDVLILDIRNDLPVEKVDSWREDGILVVGIDDPTPRRLAADLLFYPPIPQISELNWNNFNGEICSGWEWVLLRKQFCAPCPPRNNNPPALLLTMGGSDPANFTVRVLRVLDELQNDFETIVVIGAGFVHEEDLQQFLSQARRHYRIEREVSDMASLMRQADLAIASFGVTAYELAASGVPAVYLCLTPDHARSASKFVDDRLAFSCGVLEECSNERIIESTLSLLDSRELRHEVGRRACATVDGYGATRIATKIVEKLERMHSSHGLEHHHHHH	not soluble
MAKKKKEILFCDYYEDWVETYKVGAIEDVTLNKYYVAARQLRDICPKLLMSDFSRKDYQLIMNEYGKTHEKQTAKDFHHHIKAAILDAYHDGLLKSDPTYRAVIKGKELEHHHHHH	not soluble
MAKKKNVSVISVEKPTWFPLTDETGAFPVYGAPITIGTAVSIKPDVTTETTPDYGDSVVQDQYVAFGGAEVTLETNGYQNEVLAEITGGKKLKGGVLRSADDIASDGAFAYRRRKSNGKYRYTIFYKGKFALTSDETSTLEGSSVSYTHPEWTGSFVDVPGLGYMYSVDEDDEGVDLEMIKNWFTEVMDPRKENTTAVTGVTLDQTELNLKVGQTATLTPTITPDNASNKKYQFRSESEAIGTVTPIQGKVTAVGEGTTEIVVTTEDGNFTAKCTLNVTTAD	not soluble
